# Source: patent US20240034757A1
# B1: P1126_AMBCA (protein)
# chain: KPQILQRTDKSTDSEWDPQTCPETCIPSKNITCSDGCVCVKLGEEEEGTCFNMTGVDWLGSPSDD
# Target: CXCL9_HUMAN (human) (UniProt Q07325)
# Assay: yeast surface display FACS re-test
# Sequence of CXCL9_HUMAN (human) (Q07325 23-125 limits assumed): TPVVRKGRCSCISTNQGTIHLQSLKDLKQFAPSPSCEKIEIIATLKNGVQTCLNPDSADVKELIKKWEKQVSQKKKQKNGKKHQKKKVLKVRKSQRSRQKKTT
binder,measurement,value
B1,% cells over threshold fluorescence,56%
